Values quoted from earlier work, collected in article PMC6933782 (ACS Omega, 2019).

Conditions: ref 26 (Jagoda et al., 2015)

^18F-labeled RSA: ^18F-labeled rat serum albumin (RSA), literature, ref 26
retention of uptake in the heart and peripheral vasculature (PET, up to stated time postinjection): up to 2.5 h | uptake in PET: uptake in the heart and peripheral vasculature
